From article PMC5113989 come the findings set out here.

Common to all, as to assay: KinExA flow fluorimetry (depletion of 5-Helix by cells)
Test [1] concerns the target C34-conjugated CCR5 (gp41 HR2 peptide C34 fused to the amino terminus of CCR5) (HIV-1 (HxB2 numbering) | human (genomic DNA of the Jurkat T cell line)) (UniProt P04578).
The target in test [2] is C34-conjugated CXCR4 (gp41 HR2 peptide C34 fused to the amino terminus of CXCR4) (HIV-1 (HxB2 numbering) | not stated) (UniProt P04578).
For test [3], the target named is C34-conjugated CCR5 (gp41 HR2 peptide C34 fused to the amino terminus of CCR5) (HIV-1 (HxB2 numbering) | human (genomic DNA of the Jurkat T cell line)) (UniProt P04578). The source holds these as a separate data set.
The target in test [4] is C34-conjugated CXCR4 (gp41 HR2 peptide C34 fused to the amino terminus of CXCR4) (HIV-1 (HxB2 numbering) | not stated) (UniProt P04578). The source holds these as a separate data set.

Read-outs that look alike come from different tables or passages of the source.

As for “rhodamine-conjugated 5-Helix (5-Helix variant containing a C-terminal Cys residue)”, the Kd – broadly, the free concentration of one partner at which half of the binding sites on the other are occupied at equilibrium, for simple one-to-one binding – in test [1] is below 0.015 nM; in test [2] it was below 0.015 nM; in test [3], 0.013 nM; in test [4], 0.004 nM.
